Measured values as given in article PMC12520690 (2025).

Biological target: NaV1.5 CTD (Homo sapiens, UniProt Q14524)
Assay: ITC

NaV1.5 CTD, sequence (Q14524 1773-1940): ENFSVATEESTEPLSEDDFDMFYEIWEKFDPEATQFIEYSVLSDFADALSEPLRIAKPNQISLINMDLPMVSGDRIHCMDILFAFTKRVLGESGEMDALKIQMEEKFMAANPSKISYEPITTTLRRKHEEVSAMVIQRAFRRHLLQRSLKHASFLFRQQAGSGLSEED

B1: FGF13 (protein)
chain: MAAAIASSLIRQKRQAREREKSNACKCVSSPSKGKTSCDKNKLNVFSRVKLFGSKKRRRRRPEPQLKGIVTKLYSRQGYHLQLQADGTIDGTKDEDSTYTLFNLIPVGLRVVAIQGVQTKLYLAMNSEGYLYTSELFTPECKFKESVFENYYVTYSSMIYRQQQSGRGWYLGLNKEGEIMKGNHVKKNKPAAHFLPKPLKVAMYKEPSLHDLTEFSRSGSGTPTKSRSVSGVLNGGKSMSHNEST
B1 showed a Kd of 123 nM.
